The target in assay [1] is T1, cynomolgus monkey BDCA2 (full-length, cell surface, E73 SNP form) (cynomolgus monkey, UniProt Q8WTT0 1-213 (human entry)).
T1 construct: also called cyno BDCA2; surface cynomolgus monkey BDCA2
T1 chain: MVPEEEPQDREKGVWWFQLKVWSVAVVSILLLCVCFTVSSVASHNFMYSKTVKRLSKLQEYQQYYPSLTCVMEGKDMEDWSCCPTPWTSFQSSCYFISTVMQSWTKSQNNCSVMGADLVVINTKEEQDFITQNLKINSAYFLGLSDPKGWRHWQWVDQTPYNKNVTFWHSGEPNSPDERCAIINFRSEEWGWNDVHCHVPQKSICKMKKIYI
The experiment in a line: direct binding FACS, conditioned medium on CHO cells co-expressing BDCA2 and FcεRIγ. Here is the method: (§1) Conditioned medium was assayed by direct binding FACS on stably transfected DG44 CHO cells co-expressing full-length BDCA2 and FcεRIγ cDNAs (human or cynomolgus monkey), (relevant expression vectors are human BDCA2/FcεRIγ: pEAG2456, cyno BDCA2/FcεRIγ: pEAG2668).

Assay [2] addresses T1, cynomolgus monkey BDCA2 (full-length, …). The assay is described as follows: direct binding FACS, conditioned medium on CHO cells co-expressing cynomolgus BDCA2 and FcεRIγ. Here is the method: as §1
The target in assay [3] is T2, monomeric huBDCA2 ectodomain (human, UniProt Q8WTT0 45-213).
T2 construct: Prepared by proteolytic cleavage of the purified muIgG2a Fc-huBDCA2 fusion protein (pEAG2423); also called human BDCA2 ectodomain; human BDCA2 ECD
T2 sequence: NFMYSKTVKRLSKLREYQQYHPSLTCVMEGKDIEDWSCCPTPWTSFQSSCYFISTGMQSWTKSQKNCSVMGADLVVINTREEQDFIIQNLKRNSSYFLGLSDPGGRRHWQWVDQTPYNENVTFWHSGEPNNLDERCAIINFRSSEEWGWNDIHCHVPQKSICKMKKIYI
The assay is described as follows: Octet, mAb from conditioned medium on anti-human Fc tips, monomeric huBDCA2 in solution. Here is the method: Backmutation to the unpaired cysteine, i.e., S95C, was constructed by site-directed mutagenesis producing plasmid pYL749. Variants S95T, S95A, and S95V were constructed by site-directed mutagenesis producing plasmids pYL750, pYL751, and pYL752, respectively. The full-length light chain cDNA sequences in the resultant plasmids were confirmed by DNA sequencing. […] Conditioned medium was harvested at 2 days post-transfection. […] Conditioned medium containing the C95 variant mAbs was assayed by Octet for binding to human BDCA2 ectodomain. Antibodies from conditioned medium from transiently transfected cells were bound to anti-human Fc tips, then monomeric huBDCA2 was flowed over the Octet tips, to examine binding and dissociation.

Assay [4] deals with T3, human BDCA2 (full-length, cell surface) (human, UniProt Q8WTT0 1-213).
T3 construct: also called huBDCA2; surface human BDCA2
T3 sequence: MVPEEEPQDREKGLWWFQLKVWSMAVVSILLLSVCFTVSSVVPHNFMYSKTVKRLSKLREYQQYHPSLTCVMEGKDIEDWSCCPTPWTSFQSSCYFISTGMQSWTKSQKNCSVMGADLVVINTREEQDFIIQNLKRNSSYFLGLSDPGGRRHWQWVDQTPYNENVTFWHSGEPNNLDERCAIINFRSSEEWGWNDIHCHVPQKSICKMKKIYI
The assay is described as follows: direct binding FACS, conditioned medium on CHO cells co-expressing BDCA2 and FcεRIγ. How it is done:
as §1

The target of assay [5] is T2, monomeric huBDCA2 ectodomain. The assay is described as follows: Octet, mAb from conditioned medium on anti-human Fc tips, monomeric huBDCA2 in solution. Here is the method:
The monomeric huBDCA2 ectodomain was prepared by proteolytic cleavage from the purified muIgG2a Fc-huBDCA2 fusion protein (relevant plasmid: pEAG2423). Antibodies from conditioned medium from transiently transfected cells were bound to anti-human Fc tips, and then monomeric huBDCA2 was flowed over the Octet tips, to examine binding and dissociation.
The source holds these as a separate data set. Background: BLI is a label-free optical method that tracks binding on a fibre tip over time.

Where a chain is given by its changes, count along the chain named. In names and notes the source's numbering stands. Like-named read-outs stand apart in the source and are kept apart here.

One may read the Kd as the free concentration of one partner at which half of the binding sites on the other are occupied at equilibrium, for simple one-to-one binding. One may read the koff as a measure of how fast the partners let go of each other. By kon is commonly meant the rate constant with which the complex forms.

B1: hu24F4 H2/L0 (antibody, V domains shown)
VH: EVQLVESGGGLVKPGGSLRLSCAASGFTFSTYTMSWVRQAPGKGLEWVSTISPGDSSTIYYADSVKGRFTISRDNAKNSLYLQMNSLRAEDTAVYYCARDIYYNYGAWFAYWGQGTLVTVSS
VL: AIQLTQSPSSLSASVGDRVTITCKASQSVDYDGDSYMNWYQQKPGKAPKLLIYAASTLESGVPSRFSGSGSGTDFTLTISSLQPEDFATYYCQQSNEDPRTFGQGTKVEIK
notes: Humanized variant, human IgG1/kappa, conditioned medium of 293E cells; also called H2 series of hu24F4
In the case of B1, the binding result in assay [1] was “no binding”.

B2: hu24F4 H0/L1 (antibody, V domains shown)
VH: EVQLVESGGGLVKPGGSLRLSCAASGFTFSTYTMSWVRQAPGKGLEWVSAISGSGGSTYYADSVKGRFTISRDNAKNSLYLQMNSLRAEDTAVYYCARDIYYNYGAWFAYWGQGTLVTVSS
VL: B1 VL with A1D
notes: Humanized variant, human IgG1/kappa, conditioned medium of 293E cells; also called H0 series of hu24F4
As for B2, the binding result in assay [2] is “no binding (tested: about 6000 ng/ml)”.

B3: hu24F4 H1/L1 (antibody, V domains shown)
VH: B2 VH with A50T, G53P, S54G, G55D, G56S, S57F, T58G, A61P
VL: B1 VL with A1D
notes: Humanized variant, human IgG1/kappa, conditioned medium of 293E cells; also called H1 series of hu24F4
For the molecule B3, the binding result in assay [2] was “no binding (tested: about 5000 ng/ml)”.

B4: hu24F4 H4/L1 S95T (antibody, human IgG1, V domains shown)
VH: B1 VH with E1D, S49A, S57F, T58G, I59Y, A62P, K66Q, A98T
VL: B1 VL with A1D, S95T
notes: Human IgG1/kappa; conditioned medium of 293E cells; also called H4-L1-C95T (YL750/YL746); hu24F4 H4/L1 C95T
In assay [3], B4 came in with a Kd of 0.392 nM, a koff of 0.00037 s⁻¹ and an on-rate (kon) of 944000 M⁻¹ s⁻¹.

B5: hu24F4 H6/L2 (antibody, V domains shown)
VH: DVQLVESGGGLVKPGGSLRLSCAASGFTFSTYTMSWVRQAPGKGLEWVATISGGNNYGYSYPDSVKGRFTISRDNAKNSLYLQMNSLRAEDTAVYYCTRDIYYNYGAWFAYWGQGTLVTVSS
VL: B1 VL with A1D, A13V, V19A, T22S, L82V
notes: Humanized variant, human IgG1/kappa, conditioned medium of 293E cells; also called H6 series of hu24F4
As for B5, the binding result in assay [1] and in assay [4] was “binds” each time.

B6: hu24F4 H0/L0 (antibody, V domains shown)
VH: B2 VH
VL: B1 VL
notes: as for B2
For B6, the binding result in assay [1] is on record as “no binding”.

B7: hu24F4 H0/L2 (antibody, V domains shown)
VH: B2 VH
VL: B1 VL with A1D, A13V, V19A, T22S, L82V
notes: as for B2
Turning to B7, the binding result in assay [1] and in assay [4] was “no binding” in each case.

B8: hu24F4 H1/L2 (antibody, V domains shown)
VH: B2 VH with A50T, G53P, S54G, G55D, G56S, S57F, T58G, A61P
VL: B1 VL with A1D, A13V, V19A, T22S, L82V
notes: as for B3
In the case of B8, the binding result in assay [1] and in assay [4] was “no binding” each time.

B9: hu24F4 H2/L1 (antibody, V domains shown)
VH: B1 VH
VL: B1 VL with A1D
notes: as for B1
On to B9, for which, in assay [2], the binding result is listed as “no binding (tested: about 7000 ng/ml)”.

B10: hu24F4 H2/L2 (antibody, V domains shown)
VH: B1 VH
VL: B1 VL with A1D, A13V, V19A, T22S, L82V
notes: as for B1
As for B10, the binding result in assay [1] and in assay [4] was “no binding” each time.

B11: hu24F4 H4/L1 S95V (antibody, human IgG1, V domains shown)
VH: B5 VH with G53P, N55D, N56S, Y57F, S60Y, K66Q
VL: B1 VL with A1D, S95V
notes: Human IgG1/kappa; conditioned medium of 293E cells; also called H4-L1-C95V (YL752/YL746)
With B11, in assay [3], the Kd was determined as 0.323 nM, the off-rate (koff) was 0.000301 s⁻¹ and the kon came to 933000 M⁻¹ s⁻¹.

B12: hu24F4 H5/L2 (antibody, V domains shown)
VH: B5 VH with E6Q, G53P, N55D, N56S, Y57F, S60Y, K66Q, S86R, Q114R
VL: B1 VL with A1D, A13V, V19A, T22S, L82V
notes: Humanized variant, human IgG1/kappa, conditioned medium of 293E cells; also called H5 series of hu24F4
Take B12: the binding result in assay [1], in assay [4] and in assay [3] was “binds” each time.

B13: hu24F4 H4/L2 (antibody, V domains shown)
VH: B5 VH with G53P, N55D, N56S, Y57F, S60Y, K66Q
VL: B1 VL with A1D, A13V, V19A, T22S, L82V
notes: Humanized variant, human IgG1/kappa, conditioned medium of 293E cells; also called H4 series of hu24F4
Take B13: the binding result in assay [1], in assay [4] and in assay [3] was “binds” throughout.

B14: hu24F4 H3/L2 (antibody, V domains shown)
VH: B1 VH with S57F, T58G, I59Y, A62P, K66Q
VL: B1 VL with A1D, A13V, V19A, T22S, L82V
notes: Humanized variant, human IgG1/kappa, conditioned medium of 293E cells; also called H3 series of hu24F4
B14: the binding result in assay [1] and in assay [4] was “binds” each time.

B15: hu24F4 H4/L1 S95C (antibody, human IgG1, V domains shown)
VH: B5 VH with G53P, N55D, N56S, Y57F, S60Y, K66Q
VL: B1 VL with A1D, S95C
notes: Human IgG1/kappa; conditioned medium of 293E cells; also called H4-L1-S95C (YL749/YL746)
In the case of B15, in assay [3], the equilibrium dissociation constant (Kd) came out at 0.289 nM, the koff is 0.000279 s⁻¹ and the kon amounted to 967000 M⁻¹ s⁻¹.

B16: hu24F4 H6/L0 (antibody, V domains shown)
VH: B5 VH
VL: B1 VL
notes: as for B5
B16: in assay [5], the dissociation constant (Kd) is 5 nM, the koff was 0.00137 s⁻¹ and the kon was determined as 273000 M⁻¹ s⁻¹.

B17: hu24F4 H1/L0 (antibody, V domains shown)
VH: B2 VH with A50T, G53P, S54G, G55D, G56S, S57F, T58G, A61P
VL: B1 VL
notes: as for B3
In the case of B17, in assay [1], the binding result was “no binding”.

B18: hu24F4 H5/L1 C95A (antibody, V domains shown)
VH: B5 VH with E6Q, G53P, N55D, N56S, Y57F, S60Y, K66Q, S86R, Q114R
VL: DIQLTQSPSSLSASVGDRVTITCKASQSVDYDGDSYMNWYQQKPGKAPKLLIYAASTLESGVPSRFSGSGSGTDFTLTISSLQPEDFATYYCQQANEDPRTFGQGTKVEIKR
notes: also called H5/L1 C95A variant
For the molecule B18, the binding result in assay [3] is on record as “binds”.

Values taken from patent US20180362652A1 (Biogen, published 2018).
